The record followed here is patent publication US10738094B2, “Peptides and combination of peptides for use in immunotherapy against ovarian cancer and other cancers” (immatics biotechnologies GmbH, priority 2015, dated 2020).

The target of this experiment is HLA-A*02:01 (Homo sapiens, UniProt P04439, D140Y/D185E/D98H/E176V/E277Q/G131W/G231S/I119V/I121R/I166T/I218V/L300P/L318F/N151K/N90K/P208A/P217A/Q86G/Q94H/R138H/R169H/T345S). Kind of experiment: MHC binding assay (UV-ligand exchange, beta2m ELISA). The conditions noted are these: binding to HLA-A*02:01 ranged by peptide exchange yield (UV-ligand exchange, β2m ELISA). An outline of the steps: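 Stabilised complexes were quantified via their β2m light chain: 100-fold-diluted monomers bound to streptavidin plates, then HRP anti-β2m at 2 ug/ml for 1 h at 37° C., TMB read at 450 nm. The value is the yield of UV-induced exchange of a photocleavable peptide for the candidate.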
(ELISA stands for enzyme-linked immunosorbent assay.)
As for “437 (SMAPGLVIQAV; listed as Homo sapiens) [compound 437]”, the Peptide exchange result is given as ““+++” (≥50 = +++)”.
With “438 (KLLPLAGLYL; listed as Homo sapiens) [compound 438]”, the Peptide exchange entry is ““++++” (≥75% = ++++)”.
As for “439 (YLLQEIYGI; listed as Homo sapiens) [compound 439]”, the Peptide exchange result is listed as ““+++” (≥50 = +++)”.
On to “440 (ALADGVTMQV; listed as Homo sapiens) [compound 440]”, for which the Peptide exchange result was ““++” (≥20% = ++)”.
“441 (ALLENPKMEL; listed as Homo sapiens) [compound 441]”: the Peptide exchange entry is reported as ““+++” (≥50 = +++)”.
Next, “442 (GLLGGGGVLGV; listed as Homo sapiens) [compound 442]”: ““+++” (≥50 = +++)”; “444 (GLLRDEALAEV; listed as Homo sapiens) [compound 444]”: ““+++” (≥50 = +++)”.
Next, “446 (QLIPALAKV; listed as Homo sapiens) [compound 446]”: ““+++” (≥50 = +++)”.
As for “447 (QLVPALAKV; listed as Homo sapiens) [compound 447]”, the Peptide exchange result is ““++” (≥20% = ++)”.
Next, “448 (NLLETKLQL; listed as Homo sapiens) [compound 448]”: ““+++” (≥50 = +++)”; “449 (KLAEGLDIQL; listed as Homo sapiens) [compound 449]”: ““+++” (≥50 = +++)”; “450 (FMIDASVHPTL; listed as Homo sapiens) [compound 450]”: ““+++” (≥50 = +++)”.
To “451 (LLLLDTVTMQV; listed as Homo sapiens) [compound 451]” belongs ““++” (≥20% = ++)”.
Next, “452 (ILLEHGADPNL; listed as Homo sapiens) [compound 452]”: ““+++” (≥50 = +++)”; “453 (KLLEATSAV; listed as Homo sapiens) [compound 453]”: ““++” (≥20% = ++)”; “454 (KLPPPPPQA; listed as Homo sapiens) [compound 454]”: ““+++” (≥50 = +++)”.
For the substance “455 (SLLKEPQKVQL; listed as Homo sapiens) [compound 455]”, the Peptide exchange entry was ““++” (≥20% = ++)”.
As for “456 (LLIGHLERV; listed as Homo sapiens) [compound 456]”, the Peptide exchange entry is ““+++” (≥50 = +++)”.
With “457 (SLLPGNLVEKV; listed as Homo sapiens) [compound 457]”, the Peptide exchange entry is reported as ““+++” (≥50 = +++)”.
Take “458 (SLIDKLYNI; listed as Homo sapiens) [compound 458]”: the Peptide exchange entry was ““++” (≥20% = ++)”.
Next, “459 (ALITEVVRL; listed as Homo sapiens) [compound 459]”: ““++” (≥20% = ++)”; “461 (VMFRTPLASV; listed as Homo sapiens) [compound 461]”: ““++” (≥20% = ++)”.
Next, “462 (KLAKQPETV; listed as Homo sapiens) [compound 462]”: ““+++” (≥50 = +++)”; “463 (SLVESHLSDQLTL; listed as Homo sapiens) [compound 463]”: ““+++” (≥50 = +++)”; “464 (ALNDCIYSV; listed as Homo sapiens) [compound 464]”: ““+++” (≥50 = +++)”.
Next, “465 (QLCDLNAEL; listed as Homo sapiens) [compound 465]”: ““+++” (≥50 = +++)”; “466 (VLIANLEKL; listed as Homo sapiens) [compound 466]”: ““++++” (≥75% = ++++)”.
Regarding “467 (FLAKDFNFL; listed as Homo sapiens) [compound 467]”, the Peptide exchange result is on record as ““+++” (≥50 = +++)”.
With “468 (YLRSVGDGETV; listed as Homo sapiens) [compound 468]”, the Peptide exchange result is on record as ““+++” (≥50 = +++)”.
For the substance “469 (YLASDEITTV; listed as Homo sapiens) [compound 469]”, the Peptide exchange entry was ““+++” (≥50 = +++)”.
To “471 (YLYNNMIAKI; listed as Homo sapiens) [compound 471]” belongs ““+++” (≥50 = +++)”; to “472 (KLLEVSDDPQV; listed as Homo sapiens) [compound 472]”, ““+++” (≥50 = +++)”; to “473 (AMATESILHFA; listed as Homo sapiens) [compound 473]”, ““+++” (≥50 = +++)”.
To “474 (YLDPALELGPRNV; listed as Homo sapiens) [compound 474]” belongs ““+++” (≥50 = +++)”; to “475 (LLLNEEALAQI; listed as Homo sapiens) [compound 475]”, ““+++” (≥50 = +++)”.
To “476 (ALMERTGYSMV; listed as Homo sapiens) [compound 476]” belongs ““+++” (≥50 = +++)”; to “477 (ALLPASGQIAL; listed as Homo sapiens) [compound 477]”, ““+++” (≥50 = +++)”.
As to “478 (YLLHEKLNL; listed as Homo sapiens) [compound 478]”, the Peptide exchange result is on record as ““+++” (≥50 = +++)”.
To “479 (SLFGNSGILENV; listed as Homo sapiens) [compound 479]” belongs ““+++” (≥50 = +++)”.
To “480 (ALLEDSCHYL; listed as Homo sapiens) [compound 480]” belongs ““+++” (≥50 = +++)”; to “481 (GLIEDYEALL; listed as Homo sapiens) [compound 481]”, ““+++” (≥50 = +++)”; to “484 (SLIEKVTQL; listed as Homo sapiens) [compound 484]”, ““+++” (≥50 = +++)”.
To “485 (NVPDSFNEV; listed as Homo sapiens) [compound 485]” belongs ““+++” (≥50 = +++)”; to “486 (AVMESIQGV; listed as Homo sapiens) [compound 486]”, ““+++” (≥50 = +++)”.
In the case of “487 (LLINSVFHV; listed as Homo sapiens) [compound 487]”, the Peptide exchange entry is ““+++” (≥50 = +++)”.
Next, “488 (FLAEDPKVTL; listed as Homo sapiens) [compound 488]”: ““+++” (≥50 = +++)”.
Turning to “490 (FLLQHVQEL; listed as Homo sapiens) [compound 490]”, the Peptide exchange result was ““+++” (≥50 = +++)”.
Next, “491 (GLNDRSDAV; listed as Homo sapiens) [compound 491]”: ““++” (≥20% = ++)”; “492 (SLFDGFADGLGV; listed as Homo sapiens) [compound 492]”: ““+++” (≥50 = +++)”; “493 (GLLGEKTQDLIGV; listed as Homo sapiens) [compound 493]”: ““+++” (≥50 = +++)”.
Next, “494 (ALQPEPIKV; listed as Homo sapiens) [compound 494]”: ““++” (≥20% = ++)”.
Regarding “495 (FIFSEKPVFV; listed as Homo sapiens) [compound 495]”, the Peptide exchange result is recorded as ““+++” (≥50 = +++)”.
For the substance “496 (FLVEKQPPQV; listed as Homo sapiens) [compound 496]”, the Peptide exchange entry is ““+++” (≥50 = +++)”.
